Test results published in paper PMC2637931.

Columns and labels:
[1] = target: sTFR with 5-hydroxytryptophan substituted for Trp (UniProt P02786)
[2] = target: soluble portion of the transferrin receptor expressed as a recombinant entity (UniProt P02786)
Chain of soluble portion of the transferrin receptor expressed as a recombinant entity (P02786 122-760): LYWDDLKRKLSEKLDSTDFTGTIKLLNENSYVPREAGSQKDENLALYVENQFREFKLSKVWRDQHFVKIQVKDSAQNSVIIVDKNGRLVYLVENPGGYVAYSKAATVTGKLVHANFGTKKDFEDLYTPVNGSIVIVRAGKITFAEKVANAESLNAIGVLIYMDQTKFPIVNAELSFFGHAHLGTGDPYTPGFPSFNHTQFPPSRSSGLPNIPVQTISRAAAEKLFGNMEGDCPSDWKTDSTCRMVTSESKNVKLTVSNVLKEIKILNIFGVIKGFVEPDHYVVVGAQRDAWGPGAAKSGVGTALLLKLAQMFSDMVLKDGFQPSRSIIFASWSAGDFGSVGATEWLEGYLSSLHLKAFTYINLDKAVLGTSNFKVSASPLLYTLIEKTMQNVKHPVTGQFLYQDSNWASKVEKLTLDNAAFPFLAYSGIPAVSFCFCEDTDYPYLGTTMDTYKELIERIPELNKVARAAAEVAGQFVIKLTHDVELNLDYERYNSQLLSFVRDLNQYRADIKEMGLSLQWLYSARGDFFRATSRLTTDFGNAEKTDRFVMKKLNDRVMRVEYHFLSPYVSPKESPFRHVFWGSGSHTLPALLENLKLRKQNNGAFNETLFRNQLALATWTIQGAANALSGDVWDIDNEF

Work on “FeC hTF with 5-hydroxytryptophan substituted for Trp (from UniProt P02787 20-698) (ligand)” yielded a k (obsC1) of iron release from the complex at pH 5.6, excitation 280 nm [1] of 18.1 min^-1, a k (obsC1) of iron release from the complex at pH 5.6, excitation 315 nm [1] of 22.4 min^-1 and a k (obsC2) of iron release from the complex at pH 5.6, excitation 280 nm [1] of 4 min^-1. For the same substance, the k (obsC2) of iron release from the complex at pH 5.6, excitation 315 nm [1] was 3.4 min^-1, the k (obsC1) of iron release from the complex at pH 5.6, excitation 280 nm [2] was 25.8 min^-1 and the k (obsC1) of iron release from the complex at pH 5.6, excitation 315 nm [2] was 14.1 min^-1. For the same substance, the k (obsC2) of iron release from the complex at pH 5.6, excitation 280 nm [2] was 8.3 min^-1 and the k (obsC2) of iron release from the complex at pH 5.6, excitation 315 nm [2] was 2.8 min^-1.
